This test addresses Thermus thermophilus SoxB (Thermus thermophilus) (UniProt Q72IT0). Kind of test: ITC; SoxB (50 μM) in the cell, SoxYZ as the titrant; 25°C; 30 mM Tris/HCl pH 8.0, 200 mM NaCl; two replicate experiments fitted together to a hetero-association model (A + B ↔ AB). Background: ITC needs no label: the signal is the heat of the interaction.

Our source for the Kd and dH values is PMC5336275.

The term Kd denotes the concentration at which binding is half-saturated.

Sequence of UniProt Q72IT0 (Q72IT0 entry or part of it): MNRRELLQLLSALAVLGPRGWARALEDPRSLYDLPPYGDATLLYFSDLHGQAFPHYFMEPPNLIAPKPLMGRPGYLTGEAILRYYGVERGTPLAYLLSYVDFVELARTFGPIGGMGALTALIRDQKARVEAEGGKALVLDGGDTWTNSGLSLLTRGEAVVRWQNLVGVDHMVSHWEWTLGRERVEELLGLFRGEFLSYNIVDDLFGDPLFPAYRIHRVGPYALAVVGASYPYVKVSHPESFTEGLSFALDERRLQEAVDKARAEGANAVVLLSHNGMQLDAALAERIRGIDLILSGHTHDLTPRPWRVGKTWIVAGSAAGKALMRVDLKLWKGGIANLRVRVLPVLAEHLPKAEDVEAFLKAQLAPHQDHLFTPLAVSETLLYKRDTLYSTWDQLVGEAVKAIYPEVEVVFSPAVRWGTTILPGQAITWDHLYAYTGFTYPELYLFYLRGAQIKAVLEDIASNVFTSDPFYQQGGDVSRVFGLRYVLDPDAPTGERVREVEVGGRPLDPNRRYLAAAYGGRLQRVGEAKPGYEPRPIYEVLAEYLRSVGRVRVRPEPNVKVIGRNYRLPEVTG

Regarding “Thermus thermophilus SoxY_(C151E)Z variant (from UniProt Q72IS6 1-152; Q72IS7 1-108) (complex)”, the Kd amounted to 10 µM and the dH was -5 kcal/mol.
For “Thermus thermophilus SoxYZ-S-sulfonate (from UniProt Q72IS6 1-152; Q72IS7 1-108) (complex)”, in that order: 30 µM and -2 kcal/mol.
